Ends that are not written are not given here.

Broadly, the Kd is the constant that tells how readily two partners part at equilibrium. The low end stands for a tighter complex, the high end for a looser complex. The term EC50 (read off the curve) denotes the concentration needed to bring the measured effect to its halfway point.

Experiment [1] deals with T1, Full-length bovine RIα (bovine, UniProt P00514 1-380).
T1 construct: mature; given as full-length
The experiment in a line: fluorescence anisotropy. In general terms: In fluorescence polarisation assays a small probe gives low polarisation when free and higher when bound to something large.

The target in experiment [2] is T2, Full-length murine RIIα (murine, UniProt P12367 2-401).
T2 construct: mature; given as full-length
T2 sequence (P12367 2-401): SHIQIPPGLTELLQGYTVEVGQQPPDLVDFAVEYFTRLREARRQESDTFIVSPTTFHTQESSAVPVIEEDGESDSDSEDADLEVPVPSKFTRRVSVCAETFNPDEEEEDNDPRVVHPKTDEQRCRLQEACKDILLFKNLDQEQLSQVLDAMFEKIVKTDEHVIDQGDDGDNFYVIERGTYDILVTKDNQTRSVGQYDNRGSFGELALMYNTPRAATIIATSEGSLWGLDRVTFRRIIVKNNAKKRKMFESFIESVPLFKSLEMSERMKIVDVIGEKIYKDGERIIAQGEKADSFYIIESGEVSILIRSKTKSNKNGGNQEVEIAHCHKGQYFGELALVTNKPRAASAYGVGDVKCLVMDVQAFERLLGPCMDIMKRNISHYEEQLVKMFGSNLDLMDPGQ
Briefly: fluorescence anisotropy, labeled peptide. On the procedure:
(§1) Binding of each fluorescently labeled peptide to the regulatory subunits was monitored using fluorescence anisotropy. RIα and RIIα were serially diluted beginning at 1 μM and 0.1 μM, respectively, into 10 mM HEPES pH 7.4, 0.15 M NaCl, 3 mM EDTA, 0.005% Surfactant P20 (Biacore) containing either 10 nM or 1 nM of fluorescently labeled peptide for RIα and RIIα, respectively. The samples were equilibrated for at least 1 hour at room temperature and fluorescence anisotropy monitored using a Fluoromax-2 (Jobin Yvon Horiba, SPEX Division, Edison, N.J.) equipped with Glan-Thompson polarizers. The rhodamine-labeled peptide was excited at 541 nm (5-10 nm bandpass) and emission monitored at 575 nm (5-10 nm bandpass). The anisotropy was calculated directly with the Fluoromax software using the following equation: […]
(§2) Several additional truncated and substituted peptides were synthesized and their affinity to RIα and RIIα evaluated using fluorescence anisotropy (see Table 8). Binding was evaluated for both RIα and RIIα0 using fluorescence anisotropy as described herein. Substituted residues are in bold Table 8. Tryptophan at a position corresponding to residue 21 of SEQ ID NO:2 is important for discriminating against binding to the RIIα subunit.

In experiment [3] the target is T1, Full-length bovine RIα. The experiment in a line: fluorescence anisotropy, labeled peptide. How it is done:
as §1, §2

The target of experiment [4] is T2, Full-length murine RIIα. The experiment in a line: fluorescence anisotropy, labeled peptide, n = 3. On the procedure: as §1
(§3) The binding affinities of three peptides designated RIIα-specific (A13L; SEQ ID NO:109), RIα-specific (Q9F, V21W, and M25F; SEQ ID NO:103) and null (A17E and V21W; SEQ ID NO:110) were compared with the unsubstituted peptide (FIG. 2 and Table 7) using fluorescence anisotropy. […] The null peptide bound very poorly to RIα and binding to RIIα could not be detected (FIG. 2).

Experiment [5] has as its target T1, Full-length bovine RIα. The experiment in a line: fluorescence anisotropy, labeled peptide, n = 3. How it is done: as §1, §3
Experiment [6] has as its target T1, Full-length bovine RIα. Briefly: fluorescence anisotropy, labeled peptide with increasing full-length RIα; the concentration on the axis is that of the protein. On the procedure: as §1, §3
Experiment [7] deals with T2, Full-length murine RIIα. The experiment in a line: fluorescence anisotropy, labeled peptide with increasing full-length RIIα; the concentration on the axis is that of the protein. How it is done:
as §1, §3

In another experiment the target is T3, PKA-RIIα-GFP (UniProt P42212 1-238 = GFP).
T3 construct: it may be the same construct as m8; also called PKA-RIIa-GFP
The experiment in a line: SPOT membrane, anti-GFP detection. On the procedure:
Substitution analysis of both allelic peptides ([…]; SEQ ID NO:2 and […]; SEQ ID NO:1) was conducted. Each amino acid of the 27-mer peptide was substituted, one amino acid at a time per peptide, by any naturally occurring L- and D- amino acid. For both peptides complete L- and D- substitution analysis membranes have been screened for binding of PKA-RIα-GFP. After regeneration, the peptide arrays were incubated with PKA-RIIα-GFP. After binding, detection was carried out with an anti-GFP antibody in combination with a peroxidase-labeled secondary antibody.

The target in the next experiment is T4, GFP-RIα D/D (bovine, UniProt P00514 1-109).
T4 construct: range 1-109; His tag cleaved with thrombin; also called dimerization/docking (D/D) domain of bovine RIα (residues 1-109) fused to GFP; not shown: green fluorescent protein (GFP)
T4 sequence (P00514 1-109): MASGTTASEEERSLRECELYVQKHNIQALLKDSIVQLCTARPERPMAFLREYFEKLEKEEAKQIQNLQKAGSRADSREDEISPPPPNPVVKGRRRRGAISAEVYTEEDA
The experiment in a line: SPOT peptide array, anti-GFP detection.

In the next experiment the target is T5, GFP-RIIα D/D (mouse, UniProt P12367 1-46).
T5 construct: range 1-46; His tag cleaved with thrombin; also called GFP-RII D/D; D/D domain of mouse RIIα (residues 1-46) fused to GFP; not shown: green fluorescent protein (GFP)
T5 sequence (P12367 1-46): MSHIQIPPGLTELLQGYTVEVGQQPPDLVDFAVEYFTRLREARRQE
The experiment in a line: SPOT peptide array, anti-GFP detection.

Experiment [8] concerns the target T6, RIα isoform of the PKA regulatory subunit (Bos taurus (Bovine), UniProt P00514 2-380).
T6 construct: also called R1α; PKA-RIα
Briefly: fluorescence anisotropy.

T1 sequence (P00514 whole entry): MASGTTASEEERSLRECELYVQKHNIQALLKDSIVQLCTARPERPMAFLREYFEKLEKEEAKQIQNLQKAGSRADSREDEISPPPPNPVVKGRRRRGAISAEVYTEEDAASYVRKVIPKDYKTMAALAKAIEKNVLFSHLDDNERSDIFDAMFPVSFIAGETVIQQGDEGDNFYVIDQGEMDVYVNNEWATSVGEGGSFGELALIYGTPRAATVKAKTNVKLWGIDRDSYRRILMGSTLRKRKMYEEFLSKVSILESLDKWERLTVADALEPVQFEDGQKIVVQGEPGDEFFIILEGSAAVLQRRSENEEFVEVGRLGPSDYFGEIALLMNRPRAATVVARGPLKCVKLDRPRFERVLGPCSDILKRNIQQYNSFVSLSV
T6 sequence (P00514 2-380 limits assumed): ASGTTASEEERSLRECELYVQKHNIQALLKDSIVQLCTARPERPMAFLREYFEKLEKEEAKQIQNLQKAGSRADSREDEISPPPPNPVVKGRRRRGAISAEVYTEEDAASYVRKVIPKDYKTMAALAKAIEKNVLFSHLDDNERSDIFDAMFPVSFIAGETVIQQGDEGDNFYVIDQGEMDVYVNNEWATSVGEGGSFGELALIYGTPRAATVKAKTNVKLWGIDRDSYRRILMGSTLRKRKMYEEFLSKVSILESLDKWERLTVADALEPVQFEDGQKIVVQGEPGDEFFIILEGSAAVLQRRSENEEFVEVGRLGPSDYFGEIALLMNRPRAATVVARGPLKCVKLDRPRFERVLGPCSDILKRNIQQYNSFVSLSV

B1: AKB (RI), RI specific (SEQ ID NO:103) FEELAWKIAKMIWSDVFQQC, rhodamine-labeled (peptide)
peptide: FEELAWKIAKMIWSDVFQQC(tetramethylrhodamine‑5‑maleimide)-NH2
notes: also called PV-38; RIα-specific (Q9F, V21W, M25F)
As to B1, the “fold enhancement of binding against the unsubstituted peptide” value with Full-length bovine RIα [1] worked out at 10 fold. For the same molecule, the Kd with Full-length murine RIIα [2] amounted to 456 nM; in the experiment with Full-length bovine RIα [3] it was 5.2 nM; in the experiment with Full-length murine RIIα [4] it was 456 nM; with Full-length bovine RIα [5] it was 5.2 nM. Further, the results for the “EC50 (read off the curve)” value in the experiment with Full-length bovine RIα [6] and with Full-length murine RIIα [7] were about 10 nM and about 500 nM, respectively.

As for QEEFAWKIAKMIISDVFQQC(tetramethylrhodamine‑5‑maleimide)-NH2 [PV-48 (SEQ ID NO:106) QEEFAWKIAKMIISDVFQQC, rhodamine-labeled], the Kd with Full-length murine RIIα [2] worked out at 124 nM; with Full-length bovine RIα [3], 12 nM.

On to FEELAWKIAKMIISDVFQQC(tetramethylrhodamine‑5‑maleimide)-NH2 [PV-49 (SEQ ID NO:107) FEELAWKIAKMIISDVFQQC, rhodamine-labeled], for which the figures for the Kd with Full-length murine RIIα [2] and in the experiment with Full-length bovine RIα [3] were 2.5 nM and 1.1 nM, respectively.

B2: VQGNTDEAQEELAWKIAKMIVSDIMQQ (SEQ ID NO:1), cellulose-bound (peptide)
peptide: VQGNTDEAQEELAWKIAKMIVSDIMQQ
modifications: also: cellulose-bound
notes: also called Ile variant 27-mer; I24 peptide
With B2, the “fold signal intensity against PKA-RIα-GFP” value with PKA-RIIα-GFP was about 10 fold. For the same molecule, the binding result with GFP-RIα D/D and with GFP-RIIα D/D was “binds” each time.

B3: VQGNTDEAQEELAWKIAKMIVSDVMQQ (SEQ ID NO:2), cellulose-bound (peptide)
peptide: VQGNTDEAQEELAWKIAKMIVSDVMQQ
modifications: also: cellulose-bound
notes: also called Val variant 27-mer; V24 peptide
With B3, in the experiment with PKA-RIIα-GFP, the “fold signal intensity against PKA-RIα-GFP” value is about 10 fold.

On to Ac-DLAWKIAKMIVSDVMQQC(tetramethylrhodamine‑5‑maleimide)-NH2 [SEQ ID NO:112 peptide Ac-DLAWKIAKMIVSDVMQQC, rhodamine-labeled], for which the equilibrium dissociation constant (Kd) with Full-length murine RIIα [2] is 107 nM; with Full-length bovine RIα [3] it was 773 nM.

Consider VQGNTDEAQEELAWKIAKMIVSDVMQQC(tetramethylrhodamine‑5‑maleimide)-NH2 (also called unsubstituted peptide) [AKB (dual), WT (SEQ ID NO:108) VQGNTDEAQEELAWKIAKMIVSDVMQQC, rhodamine-labeled], for which the “fold increase in binding affinity against the Ile variant” value in experiment [8] was about 3 fold. Also, the Kd came to 2.2 nM with Full-length murine RIIα [2], 48 nM with Full-length bovine RIα [3], 2.2 nM with Full-length murine RIIα [4] and 48 nM with Full-length bovine RIα [5]. For the same molecule, the results for the “EC50 (read off the curve)” value with Full-length bovine RIα [6] and with Full-length murine RIIα [7] were about 50 nM and about 3 nM, respectively.

VQGNTDEAQEELLWKIAKMIVSDVMQQC(tetramethylrhodamine‑5‑maleimide)-NH2 (also called RIIα-specific (A13L)) [AKB (RII), RII specific (SEQ ID NO:109) VQGNTDEAQEELLWKIAKMIVSDVMQQC, rhodamine-labeled]: the figures for the Kd with Full-length murine RIIα [4] and with Full-length bovine RIα [5] were 2.7 nM and 2490 nM, respectively. Besides, the “EC50 (read off the curve)” value in the experiment with Full-length murine RIIα [7] is about 3 nM.

B4: AKB (null) (SEQ ID NO:110) VQGNTDEAQEELAWKIEKMIWSDVMQQC, rhodamine-labeled (peptide)
peptide: VQGNTDEAQEELAWKIEKMIWSDVMQQC(tetramethylrhodamine‑5‑maleimide)-NH2
notes: also called null peptide (A17E and V21W)
On to B4, for which the figures for the Kd with Full-length murine RIIα [4] and with Full-length bovine RIα [5] were over 10000 nM and 998 nM, respectively.

The record behind these values is patent publication US20030232420A1 (SEQUENOM, published 2003).
